# Experimental data taken from patent publication US20110124576A1 (NOVOZYMES A S, published 2011).
# Key:
# [1] = target: T1, transferrin receptor on human erythroleukemic K562 cells (human, UniProt P02786 1-760); test: specific 55Fe uptake from labelled diferric transferrin into K562 cells, 25 min at 37 C, 12.5-2000 nM; unspecific uptake (hundredfold unlabelled transferrin) subtracted; mean ± S.E.M. of three experiments
# T1 construct: whole, on cells; also called TfR
# Description: Iron uptake from labelled diferric transferrins was performed as follows. K562 erythroleukemic cells, cultured in RPMI cell culture medium under standard conditions (bicarbonate-buffered, 5% CO₂, antibiotics, 10% foetal calf serum) were washed with serum-free medium containing HEPES-buffer and 1 mg/ml of bovine serum albumin and used at a concentration of 10 million cells/ml in this medium.
# The reaction was started by the addition of 50 μl of cell suspension.
# After 25 min at 37° C. the reaction was stopped by immersion into an ice-bath, three aliquots of 30 μL of cell suspension were transferred to new tubes and the cells were centrifuged in the cold and again after addition of an oil layer of diethylphtalate/dibutylphthalate. The supernatant was removed, the cell pellet transferred into a counter vial and lysed with 0.5 M KOH+1% Triton X-100. The lysates were neutralized with 1M HCl after overnight lysis, mixed with Readysolv scintillation cocktail and counted in the Packard Liquid Scintillation Counter.
# [2] = target: T1, transferrin receptor on human …; test: cell-based or functional assay
# [3] = target: T1, transferrin receptor on human …; test: cell-based or functional assay; remark: listed apart in the source
# T1 sequence (P02786 whole entry): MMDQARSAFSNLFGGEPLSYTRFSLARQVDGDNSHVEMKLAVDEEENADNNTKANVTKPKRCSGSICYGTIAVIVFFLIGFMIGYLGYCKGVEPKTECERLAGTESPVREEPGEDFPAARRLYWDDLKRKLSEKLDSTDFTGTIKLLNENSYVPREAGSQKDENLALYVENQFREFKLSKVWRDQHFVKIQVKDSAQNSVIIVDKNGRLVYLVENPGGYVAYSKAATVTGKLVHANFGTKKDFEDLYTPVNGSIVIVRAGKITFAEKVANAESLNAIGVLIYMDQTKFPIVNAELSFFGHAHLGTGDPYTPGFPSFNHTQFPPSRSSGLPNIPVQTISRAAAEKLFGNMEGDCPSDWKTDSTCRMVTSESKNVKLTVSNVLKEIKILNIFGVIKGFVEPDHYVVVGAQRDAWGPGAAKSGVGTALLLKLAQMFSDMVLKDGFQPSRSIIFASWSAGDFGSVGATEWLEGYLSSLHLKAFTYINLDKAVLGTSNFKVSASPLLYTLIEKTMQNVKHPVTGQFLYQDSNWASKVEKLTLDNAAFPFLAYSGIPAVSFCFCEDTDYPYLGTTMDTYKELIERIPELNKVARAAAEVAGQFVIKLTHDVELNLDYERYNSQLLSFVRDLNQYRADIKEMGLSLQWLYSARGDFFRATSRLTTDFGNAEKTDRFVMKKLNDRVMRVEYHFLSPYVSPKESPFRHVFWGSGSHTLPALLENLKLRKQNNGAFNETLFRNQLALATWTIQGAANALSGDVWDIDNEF
Kd [1] [µM],Specific iron uptake Bmax [2],specific iron uptake into K562 cells [3],Binder
0.209,3020 fmol 55Fe/10^6 cells x 25 min,"> 5 % of the level for the transferrin (S415A, T613A) control","recombinant thiotransferrin (S28C, S415A, T613A) (ligand, free thiol at Cys 28, Iron-loaded in SPR, 55Fe-loaded in the K562 assay; also called from Strain 1 [pDB3767]) VPDKTVRWCAVSEHEATKCQSFRDHMKCVIPSDGPSVACVKKASYLDCIRAIAANEADAVTLDAGLVYDAYLAPNNLKPVVAEFYGSKEDPQTFYYAVAVVKKDSGFQMNQLRGKKSCHTGLGRSAGWNIPIGLLYCDLPEPRKPLEKAVANFFSGSCAPCADGTDFPQLCQLCPGCGCSTLNQYFGYSGAFKCLKDGAGDVAFVKHSTIFENLANKADRDQYELLCLDNTRKPVDEYKDCHLAQVPSHTVVARSMGGKEDLIWELLNQAQEHFGKDKSKEFQLFSSPHGKDLLFKDSAHGFLKVPPRMDAKMYLGYEYVTAIRNLREGTCPEAPTDECKPVKWCALSHHERLKCDEWSVNSVGKIECVSAETTEDCIAKIMNGEADAMSLDGGFVYIAGKCGLVPVLAENYNKADNCEDTPEAGYFAVAVVKKSASDLTWDNLKGKKSCHTAVGRTAGWNIPMGLLYNKINHCRFDEFFSEGCAPGSKKDSSLCKLCMGSGLNLCEPNNKEGYYGYTGAFRCLVEKGDVAFVKHQTVPQNTGGKNPDPWAKNLNEKDYELLCLDGTRKPVEEYANCHLARAPNHAVVTRKDKEACVHKILRQQQHLFGSNVADCSGNFCLFRSETKDLLFRDDTVCLAKLHDRNTYEKYLGEEYVKAVGNLRKCSTSSLLEACTFRRP"
0.154,2430 fmol 55Fe/10^6 cells x 25 min,"> 5 % of the level for the transferrin (S415A, T613A) control","fluorescein conjugated thiotransferrin (S28C, S415A, T613A) (ligand, fluorescein-5-maleimide conjugated to the free thiol of Cys 28, Iron-loaded in SPR, 55Fe-loaded in the K562 assay; also called Fluorescein conjugated recombinant thiotransferrin (S28C, S415A, T613A)) VPDKTVRWCAVSEHEATKCQSFRDHMKCVIPSDGPSVACVKKASYLDCIRAIAANEADAVTLDAGLVYDAYLAPNNLKPVVAEFYGSKEDPQTFYYAVAVVKKDSGFQMNQLRGKKSCHTGLGRSAGWNIPIGLLYCDLPEPRKPLEKAVANFFSGSCAPCADGTDFPQLCQLCPGCGCSTLNQYFGYSGAFKCLKDGAGDVAFVKHSTIFENLANKADRDQYELLCLDNTRKPVDEYKDCHLAQVPSHTVVARSMGGKEDLIWELLNQAQEHFGKDKSKEFQLFSSPHGKDLLFKDSAHGFLKVPPRMDAKMYLGYEYVTAIRNLREGTCPEAPTDECKPVKWCALSHHERLKCDEWSVNSVGKIECVSAETTEDCIAKIMNGEADAMSLDGGFVYIAGKCGLVPVLAENYNKADNCEDTPEAGYFAVAVVKKSASDLTWDNLKGKKSCHTAVGRTAGWNIPMGLLYNKINHCRFDEFFSEGCAPGSKKDSSLCKLCMGSGLNLCEPNNKEGYYGYTGAFRCLVEKGDVAFVKHQTVPQNTGGKNPDPWAKNLNEKDYELLCLDGTRKPVEEYANCHLARAPNHAVVTRKDKEACVHKILRQQQHLFGSNVADCSGNFCLFRSETKDLLFRDDTVCLAKLHDRNTYEKYLGEEYVKAVGNLRKCSTSSLLEACTFRRP"

# Second part, the binder before the results:
Binder,Kd [1] [µM],Specific iron uptake Bmax [2],specific iron uptake into K562 cells [3]
"recombinant human transferrin (S415A, T613A) (ligand, Secreted from S. cerevisiae; 55Fe-loaded (diferric) in the K562 assay; also called Deltaferrin; rTf) VPDKTVRWCAVSEHEATKCQSFRDHMKSVIPSDGPSVACVKKASYLDCIRAIAANEADAVTLDAGLVYDAYLAPNNLKPVVAEFYGSKEDPQTFYYAVAVVKKDSGFQMNQLRGKKSCHTGLGRSAGWNIPIGLLYCDLPEPRKPLEKAVANFFSGSCAPCADGTDFPQLCQLCPGCGCSTLNQYFGYSGAFKCLKDGAGDVAFVKHSTIFENLANKADRDQYELLCLDNTRKPVDEYKDCHLAQVPSHTVVARSMGGKEDLIWELLNQAQEHFGKDKSKEFQLFSSPHGKDLLFKDSAHGFLKVPPRMDAKMYLGYEYVTAIRNLREGTCPEAPTDECKPVKWCALSHHERLKCDEWSVNSVGKIECVSAETTEDCIAKIMNGEADAMSLDGGFVYIAGKCGLVPVLAENYNKADNCEDTPEAGYFAVAVVKKSASDLTWDNLKGKKSCHTAVGRTAGWNIPMGLLYNKINHCRFDEFFSEGCAPGSKKDSSLCKLCMGSGLNLCEPNNKEGYYGYTGAFRCLVEKGDVAFVKHQTVPQNTGGKNPDPWAKNLNEKDYELLCLDGTRKPVEEYANCHLARAPNHAVVTRKDKEACVHKILRQQQHLFGSNVADCSGNFCLFRSETKDLLFRDDTVCLAKLHDRNTYEKYLGEEYVKAVGNLRKCSTSSLLEACTFRRP",0.13,2830 fmol 55Fe/10^6 cells x 25 min,
"fluorescein conjugated thiotransferrin (S415C, T613A) (ligand, fluorescein-5-maleimide conjugated to the free thiol of Cys 415, Iron-loaded in SPR, 55Fe-loaded in the K562 assay; also called Fluorescein conjugated recombinant thiotransferrin (S415C, T613A)) VPDKTVRWCAVSEHEATKCQSFRDHMKSVIPSDGPSVACVKKASYLDCIRAIAANEADAVTLDAGLVYDAYLAPNNLKPVVAEFYGSKEDPQTFYYAVAVVKKDSGFQMNQLRGKKSCHTGLGRSAGWNIPIGLLYCDLPEPRKPLEKAVANFFSGSCAPCADGTDFPQLCQLCPGCGCSTLNQYFGYSGAFKCLKDGAGDVAFVKHSTIFENLANKADRDQYELLCLDNTRKPVDEYKDCHLAQVPSHTVVARSMGGKEDLIWELLNQAQEHFGKDKSKEFQLFSSPHGKDLLFKDSAHGFLKVPPRMDAKMYLGYEYVTAIRNLREGTCPEAPTDECKPVKWCALSHHERLKCDEWSVNSVGKIECVSAETTEDCIAKIMNGEADAMSLDGGFVYIAGKCGLVPVLAENYNKCDNCEDTPEAGYFAVAVVKKSASDLTWDNLKGKKSCHTAVGRTAGWNIPMGLLYNKINHCRFDEFFSEGCAPGSKKDSSLCKLCMGSGLNLCEPNNKEGYYGYTGAFRCLVEKGDVAFVKHQTVPQNTGGKNPDPWAKNLNEKDYELLCLDGTRKPVEEYANCHLARAPNHAVVTRKDKEACVHKILRQQQHLFGSNVADCSGNFCLFRSETKDLLFRDDTVCLAKLHDRNTYEKYLGEEYVKAVGNLRKCSTSSLLEACTFRRP",0.189,3250 fmol 55Fe/10^6 cells x 25 min,"> 5 % of the level for the transferrin (S415A, T613A) control"
"recombinant thiotransferrin (S415C, T613A) (ligand, free thiol at Cys 415, Iron-loaded in SPR, 55Fe-loaded in the K562 assay; also called from Strain 1 [pDB3773]) VPDKTVRWCAVSEHEATKCQSFRDHMKSVIPSDGPSVACVKKASYLDCIRAIAANEADAVTLDAGLVYDAYLAPNNLKPVVAEFYGSKEDPQTFYYAVAVVKKDSGFQMNQLRGKKSCHTGLGRSAGWNIPIGLLYCDLPEPRKPLEKAVANFFSGSCAPCADGTDFPQLCQLCPGCGCSTLNQYFGYSGAFKCLKDGAGDVAFVKHSTIFENLANKADRDQYELLCLDNTRKPVDEYKDCHLAQVPSHTVVARSMGGKEDLIWELLNQAQEHFGKDKSKEFQLFSSPHGKDLLFKDSAHGFLKVPPRMDAKMYLGYEYVTAIRNLREGTCPEAPTDECKPVKWCALSHHERLKCDEWSVNSVGKIECVSAETTEDCIAKIMNGEADAMSLDGGFVYIAGKCGLVPVLAENYNKCDNCEDTPEAGYFAVAVVKKSASDLTWDNLKGKKSCHTAVGRTAGWNIPMGLLYNKINHCRFDEFFSEGCAPGSKKDSSLCKLCMGSGLNLCEPNNKEGYYGYTGAFRCLVEKGDVAFVKHQTVPQNTGGKNPDPWAKNLNEKDYELLCLDGTRKPVEEYANCHLARAPNHAVVTRKDKEACVHKILRQQQHLFGSNVADCSGNFCLFRSETKDLLFRDDTVCLAKLHDRNTYEKYLGEEYVKAVGNLRKCSTSSLLEACTFRRP",0.203,2360 fmol 55Fe/10^6 cells x 25 min,"> 5 % of the level for the transferrin (S415A, T613A) control"
